Assay results as given in the supplement of paper PMC5998384.

Assays:
HeLa Kyoto [1] = test: melting temperature (median over replicates), in situ; higher = more thermally stable
HeLa Kyoto [2] = test: thermal stability score vs G1/S (z-score of summed log2 fold changes over temperatures); higher = more thermally stable than in G1/S
HeLa Kyoto [3] = test: solubility in G1/S (NP-40 vs SDS abundance) (log2 ratio); higher = more soluble; details: cell cycle stage: G1/S
HeLa Kyoto [4] = test: solubility change mitosis vs G1/S (difference of NP-40 vs SDS log2 ratios) (log2 ratio difference); higher = more soluble in mitosis
[5] = cell cycle stage: early G1 (4.5 h after nocodazole release)
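Throughout, for melting temperature (median over replicates), in situ: HeLa Kyoto cells synchronized by double thymidine or nocodazole block, proteins quantified by TMT10plex mass spectrometry, three independent biological replicates.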
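Throughout, for solubility change mitosis vs G1/S (difference of NP-40 vs SDS log2 ratios): synchronized HeLa Kyoto cells (double thymidine block for G1/S, nocodazole release for mitosis), protein amounts in NP-40 versus SDS lysates quantified by mass spectrometry, three biological replicates.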
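Throughout, for solubility in G1/S (NP-40 vs SDS abundance): HeLa Kyoto cells arrested at G1/S by double thymidine block, proteins quantified by TMT10plex mass spectrometry in mild NP-40 versus SDS extracts, three biological replicates.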
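Throughout, for thermal stability score vs G1/S (z-score of summed log2 fold changes over temperatures): synchronized HeLa Kyoto cells, proteins quantified by TMT10plex mass spectrometry, three biological replicates, mitosis taken 0.5 h after nocodazole release, G1/S directly after double thymidine block.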

Sequence	melting temperature (HeLa Kyoto [1]; cell cycle stage: G1/S) [°C]	melting temperature (HeLa Kyoto [1]; cell cycle stage: mitosis) [°C]	thermal stability score (HeLa Kyoto [2]; [5])	thermal stability score (HeLa Kyoto [2]; cell cycle stage: mitosis)	solubility in G1/S (log2) (HeLa Kyoto [3])	solubility change mitosis (log2) (HeLa Kyoto [4])
MDPLSELQDDLTLDDTSEALNQLKLASIDEKNWPSDEMPDFPKSDDSKSSSPELVTHLKWDDPYYDIARHQIVEVAGDDKYGRKIIVFSACRMPPSHQLDHSKLLGYLKHTLDQYVESDYTLLYLHHGLTSDNKPSLSWLRDAYREFDRKYKKNIKALYIVHPTMFIKTLLILFKPLISFKFGQKIFYVNYLSELSEHVKLEQLGIPRQVLKYDDFLKSTQKSPATAPKPMPPRPPLPNQQFGVSLQHLQEKNPEQEPIPIVLRETVAYLQAHALTTEGIFRRSANTQVVREVQQKYNMGLPVDFDQYNELHLPAVILKTFLRELPEPLLTFDLYPHVVGFLNIDESQRVPATLQVLQTLPEENYQVLRFLTAFLVQISAHSDQNKMTNTNLAVVFGPNLLWAKDAAITLKAINPINTFTKFLLDHQGELFPSPDPSGL [ARHGAP1]	51.4	51.4	0.517	0.431	0.473	-0.0609
MDPNTIIEALRGTMDPALREAAERQLNEAHKSLNFVSTLLQITMSEQLDLPVRQAGVIYLKNMITQYWPDRETAPGDISPYTIPEEDRHCIRENIVEAIIHSPELIRVQLTTCIHHIIKHDYPSRWTAIVDKIGFYLQSDNSACWLGILLCLYQLVKNYEYKKPEERSPLVAAMQHFLPVLKDRFIQLLSDQSDQSVLIQKQIFKIFYALVQYTLPLELINQQNLTEWIEILKTVVNRDVPNETLQVEEDDRPELPWWKCKKWALHILARLFERYGSPGNVSKEYNEFAEVFLKAFAVGVQQVLLKVLYQYKEKQYMAPRVLQQTLNYINQGVSHALTWKNLKPHIQGIIQDVIFPLMCYTDADEELWQEDPYEYIRMKFDVFEDFISPTTAAQTLLFTACSKRKEVLQKTMGFCYQILTEPNADPRKKDGALHMIGSLAEILLKKKIYKDQMEYMLQNHVFPLFSSELGYMRARACWVLHYFCEVKFKSDQNLQTALELTRRCLIDDREMPVKVEAAIALQVLISNQEKAKEYITPFIRPVMQALLHIIRETENDDLTNVIQKMICEYSEEVTPIAVEMTQHLAMTFNQVIQTGPDEEGSDDKAVTAMGILNTIDTLLSVVEDHKEITQQLEGICLQVIGTVLQQHVLEFYEEIFSLAHSLTCQQVSPQMWQLLPLVFEVFQQDGFDYFTDMMPLLHNYVTVDTDTLLSDTKYLEMIYSMCKKVLTGVAGEDAECHAAKLLEVIILQCKGRGIDQCIPLFVEAALERLTREVKTSELRTMCLQVAIAALYYNPHLLLNTLENLRFPNNVEPVTNHFITQWLNDVDCFLGLHDRKMCVLGLCALIDMEQIPQVLNQVSGQILPAFILLFNGLKRAYACHAEHENDSDDDDEAEDDDETEELGSDEDDIDEDGQEYLEILAKQAGEDGDDEDWEEDDAEETALEGYSTIIDDEDNPVDEYQIFKAIFQTIQNRNPVWYQALTHGLNEEQRKQLQDIATLADQRRAAHESKMIEKHGGYKFSAPVVPSSFNFGGPAPGMN [IPO7]	52.7	51.3	1.18	3.75	-0.0648	-0.133
MDREERKTINQGQEDEMEIYGYNLSRWKLAIVSLGVICSGGFLLLLLYWMPEWRVKATCVRAAIKDCEVVLLRTTDEFKMWFCAKIRVLSLETYPVSSPKSMSNKLSNGHAVCLIENPTEENRHRISKYSQTESQQIRYFTHHSVKYFWNDTIHNFDFLKGLDEGVSCTSIYEKHSAGLTKGMHAYRKLLYGVNEIAVKVPSVFKLLIKEVLNPFYIFQLFSVILWSTDEYYYYALAIVVMSIVSIVSSLYSIRKQYVMLHDMVATHSTVRVSVCRVNEEIEEIFSTDLVPGDVMVIPLNGTIMPCDAVLINGTCIVNESMLTGESVPVTKTNLPNPSVDVKGIGDELYNPETHKRHTLFCGTTVIQTRFYTGELVKAIVVRTGFSTSKGQLVRSILYPKPTDFKLYRDAYLFLLCLVAVAGIGFIYTIINSILNEVQVGVIIIESLDIITITVPPALPAAMTAGIVYAQRRLKKIGIFCISPQRINICGQLNLVCFDKTGTLTEDGLDLWGIQRVENARFLSPEENVCNEMLVKSQFVACMATCHSLTKIEGVLSGDPLDLKMFEAIGWILEEATEEETALHNRIMPTVVRPPKQLLPESTPAGNQEMELFELPATYEIGIVRQFPFSSALQRMSVVARVLGDRKMDAYMKGAPEAIAGLCKPETVPVDFQNVLEDFTKQGFRVIALAHRKLESKLTWHKVQNISRDAIENNMDFMGLIIMQNKLKQETPAVLEDLHKANIRTVMVTGDSMLTAVSVARDCGMILPQDKVIIAEALPPKDGKVAKINWHYADSLTQCSHPSAIDPEAIPVKLVHDSLEDLQMTRYHFAMNGKSFSVILEHFQDLVPKLMLHGTVFARMAPDQKTQLIEALQNVDYFVGMCGDGANDCGALKRAHGGISLSELEASVASPFTSKTPSISCVPNLIREGRAALITSFCVFKFMALYSIIQYFSVTLLYSILSNLGDFQFLFIDLAIILVVVFTMSLNPAWKELVAQRPPSGLISGALLFSVLSQIIICIGFQSLGFFWVKQQPWYEVWHPKSDACNTTGSGFWNSSHVDNETELDEHNIQNYENTTVFFISSFQYLIVAIAFSKGKPFRQPCYKNYFFVFSVIFLYIFILFIMLYPVASVDQVLQIVCVPYQWRVTMLIIVLVNAFVSITVEESVDRWGKCCLPWALGCRKKTPKAKYMYLAQELLVDPEWPPKPQTTTEAKALVKENGSCQIITIT [ATP13A3]	54.3	53.9	-0.654	-0.884	-0.205	-0.0406
MDRFVWTSGLLEINETLVIQQRGVRIYDGEEKIKFDAGTLLLSTHRLIWRDQKNHECCMAILLSQIVFIEEQAAGIGKSAKIVVHLHPAPPNKEPGPFQSSKNSYIKLSFKEHGQIEFYRRLSEEMTQRRWENMPVSQSLQTNRGPQPGRIRAVGIVGIERKLEEKRKETDKNISEAFEDLSKLMIKAKEMVELSKSIANKIKDKQGDITEDETIRFKSYLLSMGIANPVTRETYGSGTQYHMQLAKQLAGILQVPLEERGGIMSLTEVYCLVNRARGMELLSPEDLVNACKMLEALKLPLRLRVFDSGVMVIELQSHKEEEMVASALETVSEKGSLTSEEFAKLVGMSVLLAKERLLLAEKMGHLCRDDSVEGLRFYPNLFMTQS [VPS36]	51.6	51	1.41	2.15	-0.823	-0.0782
MDRMTEDALRLNLLKRSLDPADERDDVLAKRLKMEGHEAMERLKMLALLKRKDLANLEVPHELPTKQDGSGVKGYEEKLNGNLRPHGDNRTAGRPGKENINDEPVDMSARRSEPERGRLTPSPDIIVLSDNEASSPRSSSRMEERLKAANLEMFKGKGIEERQQLIKQLRDELRLEEARLVLLKKLRQSQLQKENVVQKTPVVQNAASIVQPSPAHVGQQGLSKLPSRPGAQGVEPQNLRTLQGHSVIRSATNTTLPHMLMSQRVIAPNPAQLQGQRGPPKPGLVRTTTPNMNPAINYQPQSSSSVPCQRTTSSAIYMNLASHIQPGTVNRVSSPLPSPSAMTDAANSQAAAKLALRKQLEKTLLEIPPPKPPAPLLHFLPSAANSEFIYMVGLEEVVQSVIDSQGKSCASLLRVEPFVCAQCRTDFTPHWKQEKNGKILCEQCMTSNQKKALKAEHTNRLKNAFVKALQQEQEIEQRLQQQAALSPTTAPAVSSVSKQETIMRHHTLRQAPQPQSSLQRGIPTSARSMLSNFAQAPQLSVPGGLLGMPGVNIAYLNTGIGGHKGPSLADRQREYLLDMIPPRSISQSISGQK [GATAD2B]	49	50.6	1.06	3.82	0.413	0.158
MDRSGFGEISSPVIREAEVTRTARKQSAQKRVLLQASQDENFGNTTPRNQVIPRTPSSFRQPFTPTSRSLLRQPDISCILGTGGKSPRLTQSSGFFGNLSMVTNLDDSNWAAAFSSQRSGLFTNTEPHSITEDVTISAVMLREDDPGEAASMSMFSDFLQSFLKHSSSTVFDLVEEYENICGSQVNILSKIVSRATPGLQKFSKTASMLWLLQQEMVTWRLLASLYRDRIQSALEEESVFAVTAVNASEKTVVEALFQRDSLVRQSQLVVDWLESIAKDEIGEFSDNIEFYAKSVYWENTLHTLKQRQLTSYVGSVRPLVTELDPDAPIRQKMPLDDLDREDEVRLLKYLFTLIRAGMTEEAQRLCKRCGQAWRAATLEGWKLYHDPNVNGGTELEPVEGNPYRRIWKISCWRMAEDELFNRYERAIYAALSGNLKQLLPVCDTWEDTVWAYFRVMVDSLVEQEIQTSVATLDETEELPREYLGANWTLEKVFEELQATDKKRVLEENQEHYHIVQKFLILGDIDGLMDEFSKWLSKSRNNLPGHLLRFMTHLILFFRTLGLQTKEEVSIEVLKTYIQLLIREKHTNLIAFYTCHLPQDLAVAQYALFLESVTEFEQRHHCLELAKEADLDVATITKTVVENIRKKDNGEFSHHDLAPALDTGTTEEDRLKIDVIDWLVFDPAQRAEALKQGNAIMRKFLASKKHEAAKEVFVKIPQDSIAEIYNQCEEQGMESPLPAEDDNAIREHLCIRAYLEAHETFNEWFKHMNSVPQKPALIPQPTFTEKVAHEHKEKKYEMDFGIWKGHLDALTADVKEKMYNVLLFVDGGWMVDVREDAKEDHERTHQMVLLRKLCLPMLCFLLHTILHSTGQYQECLQLADMVSSERHKLYLVFSKEELRKLLQKLRESSLMLLDQGLDPLGYEIQL [NUP107]	51.1	49.3	-2.75	-3.13	-0.526	0.428
MDSALSDPHNGSAEAGGPTNSTTRPPSTPEGIALAYGSLLLMALLPIFFGALRSVRCARGKNASDMPETITSRDAARFPIIASCTLLGLYLFFKIFSQEYINLLLSMYFFVLGILALSHTISPFMNKFFPASFPNRQYQLLFTQGSGENKEEIINYEFDTKDLVCLGLSSIVGVWYLLRKHWIANNLFGLAFSLNGVELLHLNNVSTGCILLGGLFIYDVFWVFGTNVMVTVAKSFEAPIKLVFPQDLLEKGLEANNFAMLGLGDVVIPGIFIALLLRFDISLKKNTHTYFYTSFAAYIFGLGLTIFIMHIFKHAQPALLYLVPACIGFPVLVALAKGEVTEMFSYEESNPKDPAAVTESKEGTEASASKGLEKKEK [HM13]	60.5	59.8	-1.07	-1.15	-0.106	-0.167
MDSGSSSSDSAPDCWDQVDMESPGSAPSGDGVSSAVAEAQREPLSSAFSRKLNVNAKPFVPNVHAAEFVPSFLRGPTQPPTLPAGSGSNDETCTGAGYPQGKRMGRGAPVEPSREEPLVSLEGSNSAVTMELSEPVVENGEVEMALEESWEHSKEVSEAEPGGGSSGDSGPPEESGQEMMEEKEEIRKSKSVIVPSGAPKKEHVNVVFIGHVDAGKSTIGGQIMFLTGMVDKRTLEKYEREAKEKNRETWYLSWALDTNQEERDKGKTVEVGRAYFETERKHFTILDAPGHKSFVPNMIGGASQADLAVLVISARKGEFETGFEKGGQTREHAMLAKTAGVKHLIVLINKMDDPTVNWSIERYEECKEKLVPFLKKVGFSPKKDIHFMPCSGLTGANIKEQSDFCPWYTGLPFIPYLDNLPNFNRSIDGPIRLPIVDKYKDMGTVVLGKLESGSIFKGQQLVMMPNKHNVEVLGILSDDTETDFVAPGENLKIRLKGIEEEEILPGFILCDPSNLCHSGRTFDVQIVIIEHKSIICPGYNAVLHIHTCIEEVEITALISLVDKKSGEKSKTRPRFVKQDQVCIARLRTAGTICLETFKDFPQMGRFTLRDEGKTIAIGKVLKLVPEKD [GSPT2]	–	53.5	-1.05	-1.43	0.153	-0.124
